Laboratory results reported in article PMC2725194.

Columns and labels:
Assay in all cases: AlphaScreen or HTRF
[1] = target: PPARα ligand binding domain (LBD)
[2] = target: PPARδ ligand binding domain (LBD)
[3] = target: PPARγ ligand binding domain (LBD)

Measured: AlphaScreen signal

N-terminal biotinylated CBP1 peptide
< 800: [1] | [2] | [3]
